Test results from the supplement of paper PMC10126150.
± gives the standard deviation of the averaged measurements.

Tested on: ATP
Assay: switch fluorescence ratio, 500 uM ATP over buffer (Cy3 cluster intensity, sum of 5 cycles each) (fold (ratio)); higher = stronger signal-on switching upon ATP binding; sequences stand for … in TCGTCGGCAGCGTCAGATGTGTATAAGAGACAGTTTTTTTTTTTTTTTTTTTTTTTTT…TC
Settings: aptamer strand: ATP DNA aptamer (quencher-CACCTGGGGGAGTATTGCGGAGGAAGG + anchor), 100 nM annealed; ATP concentration: 500 uM
Method in brief: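 Clusters with intensities outside 100-1000 RFU were excluded. The remaining Cy3-labelled switching-strand clusters on a modified Illumina MiSeq flow-cell had been annealed to 100 nM quencher-labelled ATP aptamer and imaged in selection buffer, then after 15 min with 500 uM ATP at 22 °C, for five cycles separated by NaOH stripping and re-annealing. The fluorescence ratio, averaged per switch-domain sequence, is each cluster's summed target-cycle Cy3 intensity over its summed buffer-cycle Cy3 intensity.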
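Note: ATP exposure 15 min at 22 °C before imaging.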

Point of comparison: TCTGGGGAGT, switch fluorescence ratio 1.01 ± 0.043. Against it:
- TCTGAGAGGG — within error, 1 ± 0.017
- TCTGAGATAT — within error, 0.9872 ± 0.0028
- TCTGAGCGAC — higher, 1.57 ± 0.14
- TCTGAGGTTT — within error, 1.04 ± 0.029
- TCTGCCTAGG — higher, 1.13 ± 0.075
- TCTGCGTAAG — within error, 1.003 ± 0.0065
- TCTGCGTCTG — within error, 1.16 ± 0.2
- TCTGCTTATT — within error, 0.979 ± 0.048
- TCTGGAGTTG — the same, 1.01 ± 0.084
- TCTGGCAATG — higher, 1.46 ± 0.061
- TCTGGCGGC — within error, 0.981 ± 0.039
- TCTGGCTATT — the same, 1.01 ± 0.02
- TCTGGCTTTT — within error, 1.022 ± 0.0092
- TCTGGGAATT — within error, 1.046 ± 0.0027
- TCTGGGCTTT — within error, 1.07 ± 0.1
- TCTGGGGCGG — within error, 1.04 ± 0.074
- TCTGGTGATA — the same, 1.01 ± 0.017
- TCTGGTGTTC — within error, 1.045 ± 0.005
- TCTGGTTGGG — within error, 1.04 ± 0.064
- TCTGGTTGTG — the same, 1.01 ± 0.016
- TCTGTAATTT — within error, 1.41 ± 0.59
- TCTGTAGGGG — within error, 0.995 ± 0.013
- TCTGTGAGGT — within error, 1.034 ± 0.0072
- TCTGTGTTTT — within error, 1.04 ± 0.038
- TCTGTTAGTG — within error, 1.03 ± 0.045
- TCTGTTGTTC — within error, 0.993 ± 0.018
- TCTTAATTG — within error, 0.98356 ± 0.00079
- TCTTAGAAC — the same, 1.009 ± 0.0062
- TCTTAGCATT — within error, 1.04 ± 0.077
- TCTTAGGGTT — within error, 1.02 ± 0.017
- TCTTAGTTCG — the same, 1.008 ± 0.01
- TCTTATAGGG — within error, 1 ± 0.042
- TCTTATGGCC — within error, 0.975 ± 0.018
- TCTTATTCTG — within error, 1.044 ± 0.0063
- TCTTCGGGAA — within error, 1.09 ± 0.06
- TCTTCTACCT — higher, 1.2 ± 0.022
- TCTTCTAGCT — within error, 1.05 ± 0.019
- TCTTGAAGGT — within error, 0.985 ± 0.0053
- TCTTGCGTCG — within error, 0.976 ± 0.023
- TCTTGGATGT — the same, 1.0101 ± 5.3e-05
- TCTTGGTA — within error, 0.959 ± 0.031
- TCTTGGTCTC — within error, 0.995 ± 0.027
- TCTTGTATGG — within error, 0.9906 ± 0.006
- TCTTTAAAGG — within error, 1.04 ± 0.039
- TCTTTCCGGT — within error, 1.14 ± 0.23
- TCTTTCGGAG — higher, 1.33 ± 0.077
- TCTTTGAAGA — within error, 1.14 ± 0.24
- TCTTTGGACC — within error, 1.04 ± 0.056
- TCTTTGGTGG — within error, 1.03 ± 0.038
- TCTTTTCATT — within error, 0.994 ± 0.022
- TCTTTTCCCT — within error, 1.02 ± 0.086
- TCTTTTGCCT — the same, 1.01 ± 0.034
- TCTTTTGCTT — the same, 1.01 ± 0.032
- TCTTTTGGCA — within error, 1.1 ± 0.078
- TCTTTTGGTT — the same, 1.011 ± 0.0051
- TCTTTTTTTC — within error, 1.02 ± 0.034
- TGAAAAAAAT — within error, 1.05 ± 0.058
- TGAAAAACCG — within error, 1.14 ± 0.12
- TGAAAAACGT — within error, 0.991 ± 0.013
- TGAAAAAGGT — within error, 0.9993 ± 0.0021
- TGAAAAGGTA — within error, 1 ± 0.013
- TGAAAGAGGC — within error, 0.999 ± 0.014
- TGAAAGGATT — within error, 1.02 ± 0.025
- TGAAAGGTGG — within error, 1.04 ± 0.018
- TGAAAGTGTT — within error, 0.994 ± 0.012
- TGAAATGGGA — the same, 1.0074 ± 0.00077
- TGAACGGGGA — within error, 1.02 ± 0.031
- TGAACTAATT — the same, 1.01 ± 0.0099
- TGAACTTAGT — within error, 0.995 ± 0.02
- TGAACTTTTA — within error, 0.965 ± 0.061
- TGAAGAAAGT — within error, 0.998 ± 0.032
- TGAAGATTAT — within error, 0.988 ± 0.012
- TGAAGGAGAA — lower, 0.929 ± 0.037
- TGAAGGGGAT — within error, 1.02 ± 0.045
- TGAAGTACTT — within error, 1.06 ± 0.011
- TGAAGTCGGT — within error, 0.9681 ± 0.0066
- TGAAGTTGGG — within error, 1.11 ± 0.15
- TGAATAGTGT — within error, 0.996 ± 0.044
- TGAATCGGGG — within error, 1.027 ± 0.0014
- TGAATGAGGG — within error, 0.993 ± 0.029
- TGAATGCGCC — the same, 1.01 ± 0.025
- TGAATGCTTT — within error, 1.23 ± 0.3
- TGAATGGAGG — within error, 0.988 ± 0.042
- TGAATGGGGT — within error, 0.987 ± 0.02
- TGAATGGTCG — within error, 1.05 ± 0.036
- TGAATTCGGG — the same, 1.01 ± 0.064
- TGAATTCTTG — within error, 1 ± 0.034
- TGAATTGCAT — lower, 0.96601 ± 0.00064
- TGAATTGGTC — within error, 1.06 ± 0.16
- TGAATTGTTT — within error, 0.993 ± 0.043
- TGAATTTCTG — within error, 1.029 ± 0.0094
- TGAATTTGTA — within error, 0.993 ± 0.03
- TGACAAGGGG — within error, 1.05 ± 0.044
- TGACACATGA — within error, 1.02 ± 0.013
- TGACACTTGG — within error, 0.99 ± 0.011
- TGACAGTCAG — within error, 0.968 ± 0.02
- TGACATAATT — the same, 1.01 ± 0.046
- TGACATGGGG — within error, 0.9827 ± 0.0051
- TGACCACCAG — within error, 0.993 ± 0.019
